Data published in publication PMC6611726 (Nature, 2019).
Values belong to the molecule of their own block, whether it stands above or below them.

Columns and labels:
[1] = molecular target: DDB1 (UV-DDB subunit);DDB2 (UV-DDB subunit) (human;human) (UniProt Q16531+Q92466); experiment: fluorescence polarisation; conditions: N at position 8 = THF abasic site
[2] = molecular target: DDB1 (human wild-type DDB1) (human, UniProt Q16531 1-1140); experiment: cryo-EM structure
DDB1 (human wild-type DDB1), sequence (Q16531 whole entry): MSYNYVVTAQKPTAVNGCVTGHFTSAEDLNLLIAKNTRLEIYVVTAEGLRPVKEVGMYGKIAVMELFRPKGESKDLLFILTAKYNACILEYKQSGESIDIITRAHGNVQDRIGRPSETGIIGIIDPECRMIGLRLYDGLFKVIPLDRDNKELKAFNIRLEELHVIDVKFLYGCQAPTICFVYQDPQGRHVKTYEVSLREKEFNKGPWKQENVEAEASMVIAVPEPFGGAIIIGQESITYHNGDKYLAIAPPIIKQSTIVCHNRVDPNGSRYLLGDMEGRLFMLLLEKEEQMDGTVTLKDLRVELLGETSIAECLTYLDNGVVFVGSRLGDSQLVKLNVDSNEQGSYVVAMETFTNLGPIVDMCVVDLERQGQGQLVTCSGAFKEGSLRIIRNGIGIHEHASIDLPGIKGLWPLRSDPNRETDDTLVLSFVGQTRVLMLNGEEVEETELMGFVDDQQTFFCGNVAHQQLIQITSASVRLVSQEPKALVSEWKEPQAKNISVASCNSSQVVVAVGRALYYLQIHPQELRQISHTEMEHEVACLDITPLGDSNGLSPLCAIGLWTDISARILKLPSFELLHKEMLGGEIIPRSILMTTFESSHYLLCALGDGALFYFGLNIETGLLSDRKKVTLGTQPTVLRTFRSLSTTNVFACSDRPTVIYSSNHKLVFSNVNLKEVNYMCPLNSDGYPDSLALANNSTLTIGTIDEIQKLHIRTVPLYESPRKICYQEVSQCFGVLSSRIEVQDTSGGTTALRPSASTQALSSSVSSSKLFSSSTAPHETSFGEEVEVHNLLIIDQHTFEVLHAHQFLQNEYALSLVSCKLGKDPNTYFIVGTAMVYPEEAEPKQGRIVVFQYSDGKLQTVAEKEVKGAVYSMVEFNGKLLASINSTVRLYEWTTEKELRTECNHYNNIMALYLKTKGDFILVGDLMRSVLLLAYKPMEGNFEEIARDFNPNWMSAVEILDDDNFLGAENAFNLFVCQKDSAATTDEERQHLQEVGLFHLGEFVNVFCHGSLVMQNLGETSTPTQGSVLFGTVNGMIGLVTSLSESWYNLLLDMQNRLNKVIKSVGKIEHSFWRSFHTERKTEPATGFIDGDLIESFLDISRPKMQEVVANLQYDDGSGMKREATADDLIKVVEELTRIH

DDB1 (UV-DDB subunit);DDB2 (UV-DDB subunit) (human;human), sequence (Q16531 whole entry, chain 1 of 2, one chain of several): as the sequence (Q16531 whole entry) above

Molecule: AATGAATNAAGCAGG / CCTGCTTTATTCATT [Cy5-15-bp-DNA-THF]
- Kd [1]: 0.15 nM

- binding result [2]: binds
B1: DDB2 (human wild-type DDB2) (natural protein)
chain: MAPKKRPETQKTSEIVLRPRNKRSRSPLELEPEAKKLCAKGSGPSRRCDSDCLWVGLAGPQILPPCRSIVRTLHQHKLGRASWPSVQQGLQQSFLHTLDSYRILQKAAPFDRRATSLAWHPTHPSTVAVGSKGGDIMLWNFGIKDKPTFIKGIGAGGSITGLKFNPLNTNQFYASSMEGTTRLQDFKGNILRVFASSDTINIWFCSLDVSASSRMVVTGDNVGNVILLNMDGKELWNLRMHKKKVTHVALNPCCDWFLATASVDQTVKIWDLRQVRGKASFLYSLPHRHPVNAACFSPDGARLLTTDQKSEIRVYSASQWDCPLGLIPHPHRHFQHLTPIKAAWHPRYNLIVVGRYPDPNFKSCTPYELRTIDVFDGNSGKMMCQLYDPESSGISSLNEFNPMGDTLASAMGYHILIWSQEEARTRK
